Assay results: article PMC9769551

Each sequence was assayed against T1, AcrR (Escherichia coli BW25113) (UniProt P0ACS9) (assay: EMSA). Conditions: 10 mM Tris-HCl pH 7.5, 50 mM KCl, 1 mM DTT, 5 mM MgCl2, 1 ug poly(dI-dC), 0.05% NP-40, 5% glycerol, 20 uL with 25 fmol DNA (protein stock in 200 mM NaCl, 20 mM …).
T1 sequence: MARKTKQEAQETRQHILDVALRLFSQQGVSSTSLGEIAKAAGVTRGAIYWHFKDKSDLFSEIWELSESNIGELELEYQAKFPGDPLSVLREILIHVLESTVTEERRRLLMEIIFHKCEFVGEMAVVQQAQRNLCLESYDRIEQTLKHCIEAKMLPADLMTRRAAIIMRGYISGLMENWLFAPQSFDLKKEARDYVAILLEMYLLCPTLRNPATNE
For “CAAAGTAAAGTGGTCAAGCCCCGCGCATAGCGCAAGCTTTGGCAGAAGAAAGGACTAAAGCGCGTTGCGCCAGTGCTGCTCACCTACGAGCAAGATAGTGGATGAGGTACGAAGATGGGTAAATGTAGAAAATAACGTCCTGAACAAATTGTCCATAATATTACAATTATCCGCAGTGTTGCTTCTCGTCATCGCGGATGATAATTGTCCTCGGTAGTTGAACACGCCTGATTTGTATCATAGCTTAAGAATTAACTCAAAATATTTTCACTTCTTTACCTGAGCG (double strand) [mdtUJIp 286 bp]”, the binding was “binds”. “CTTTGATAGTCATATATTCCACCAGCTATTTGTTAGTGAATAAAAGGTTGCCTGTAAAATTACAAAAACCTTACGCAGCGTCAAGCGGAATCGTGTCAATCATTGCGACAAATCAATCCTGTGCCTAAGCATTACGCGACTGACTCGCCTCACTCTTCCTTTGGGCTTGAGACCACATGGGGTCGGCGCCCCGAATTTTAAAGGGCAATTACGATAAAAATGTGATTTTCATCACGATTTAGGTGCAGC (double strand) [gapAp 249 bp]” was tested, and the binding was “no binding”. “GTGGACTAAATTATCGCCATTACTGCGCTTTAAATGACCTTTATGTTCAATATTTTTTCAATCTAGCAGTGGGTTTTCATTTTTGCAAACTCAATTTAACATTTGACAAACATTTAGTTTGCATACAGATTCGAATGGTGGTCATTATATTTTACGCTTTGATAACGAGCGGAAAACAAACCAAAGGCGAAGAATCATGGAAACCAATATCGTTGAAGTAGAGAAC (double strand) [puuAp 226 bp]” was tested, and the binding was “binds”. In the case of “TGTTCATATGTAAACCTCGAGTGTCCGATTTCAAATTGGTCAATGGTCAAAAGTTAATAAACCCATTGCTGCGTTTATATTATCGTCGTGCTATGGTACATACATTCACAAATGTATGTAAATCTAACGCCTGTAAATTCACGAACATATGGCACGAAAAACCAAACAAGAAGCGCAAG (double strand) [acrABp 179 bp]”, the binding was “binds”.
